Numbered stars: 1 amine (or outer) side, 2 acyl side, 3 side chain; on linkers, the order of the positions; unused ones are H or OH. Square brackets hold non-standard residues; d marks the D form. Side chains are listed from the residue outwards. Ends that are not written are not given here. * marks the point of attachment. Phe(4-CH2NH2) = NCc1ccc(C[C@H](N)C(=O)O)cc1; C18 diacid = O=C(O)CCCCCCCCCCCCCCCCC(=O)*; γGlu = O=C(O)[C@H](CCC(=O)[*:2])N[*:1]; Met(O2) = CS(=O)(=O)CC[C@H](N)C(=O)O; αMeF = C[C@](N)(Cc1ccccc1)C(=O)O; αMeD = C[C@](N)(CC(=O)O)C(=O)O; AEEA = NCCOCCOCC(=O)O; Aib = CC(C)(N)C(=O)O; C16 = lipid (C16)
B1: TP599 (peptide)
peptide: H[Aib]QGTFTSDYSKYLDALAAK([AEEA-AEEA-γGlu-C18 diacid])DFVQWL[Met(O2)]DT-NH2
modifications: N-terminus assumed
SMILES: CC(C)C[C@H](NC(=O)[C@H](C)NC(=O)[C@H](CC(=O)O)NC(=O)[C@H](CC(C)C)NC(=O)[C@H](Cc1ccc(O)cc1)NC(=O)[C@H](CCCCN)NC(=O)[C@H](CO)NC(=O)[C@H](Cc1ccc(O)cc1)NC(=O)[C@H](CC(=O)O)NC(=O)[C@H](CO)NC(=O)[C@@H](NC(=O)[C@H](Cc1ccccc1)NC(=O)[C@@H](NC(=O)CNC(=O)[C@H](CCC(N)=O)NC(=O)C(C)(C)NC(=O)[C@@H](N)Cc1c[nH]cn1)[C@@H](C)O)[C@@H](C)O)C(=O)N[C@@H](C)C(=O)N[C@@H](C)C(=O)N[C@@H](CCCCNC(=O)COCCOCCNC(=O)COCCOCCNC(=O)CC[C@H](NC(=O)CCCCCCCCCCCCCCCCC(=O)O)C(=O)O)C(=O)N[C@@H](CC(=O)O)C(=O)N[C@@H](Cc1ccccc1)C(=O)N[C@H](C(=O)N[C@@H](CCC(N)=O)C(=O)N[C@@H](Cc1c[nH]c2ccccc12)C(=O)N[C@@H](CC(C)C)C(=O)N[C@@H](CCS(C)(=O)=O)C(=O)N[C@@H](CC(=O)O)C(=O)N[C@H](C(N)=O)[C@@H](C)O)C(C)C
B2: TP596 (peptide)
peptide: H[Aib]QGTFLSDYSKYLDARAAK([AEEA-AEEA-γGlu-C18 diacid])DFVQWL[Met(O2)]DT-NH2
modifications: N-terminus assumed
SMILES: CC(C)C[C@H](NC(=O)[C@H](Cc1ccc(O)cc1)NC(=O)[C@H](CCCCN)NC(=O)[C@H](CO)NC(=O)[C@H](Cc1ccc(O)cc1)NC(=O)[C@H](CC(=O)O)NC(=O)[C@H](CO)NC(=O)[C@H](CC(C)C)NC(=O)[C@H](Cc1ccccc1)NC(=O)[C@@H](NC(=O)CNC(=O)[C@H](CCC(N)=O)NC(=O)C(C)(C)NC(=O)[C@@H](N)Cc1c[nH]cn1)[C@@H](C)O)C(=O)N[C@@H](CC(=O)O)C(=O)N[C@@H](C)C(=O)N[C@@H](CCCNC(=N)N)C(=O)N[C@@H](C)C(=O)N[C@@H](C)C(=O)N[C@@H](CCCCNC(=O)COCCOCCNC(=O)COCCOCCNC(=O)CC[C@H](NC(=O)CCCCCCCCCCCCCCCCC(=O)O)C(=O)O)C(=O)N[C@@H](CC(=O)O)C(=O)N[C@@H](Cc1ccccc1)C(=O)N[C@H](C(=O)N[C@@H](CCC(N)=O)C(=O)N[C@@H](Cc1c[nH]c2ccccc12)C(=O)N[C@@H](CC(C)C)C(=O)N[C@@H](CCS(C)(=O)=O)C(=O)N[C@@H](CC(=O)O)C(=O)N[C@H](C(N)=O)[C@@H](C)O)C(C)C
B3: TP577 (peptide)
peptide: HXQGTFTSDYSKYLDSRAAXDFVQWLXDT
modifications: Aib (U) at 2; K(PEG2PEG2γEC20-OH) at 20; L-methionine sulphone (2) at 27; C-terminal amide
B4: TP587 (peptide)
peptide: H[Aib]QGTFTSDYSKYLDERAA[Phe(4-CH2NH2)]([AEEA-AEEA-γGlu-C18 diacid])DFVQWLLKT-NH2
modifications: N-terminus assumed
SMILES: CC(C)C[C@H](NC(=O)[C@H](Cc1ccc(O)cc1)NC(=O)[C@H](CCCCN)NC(=O)[C@H](CO)NC(=O)[C@H](Cc1ccc(O)cc1)NC(=O)[C@H](CC(=O)O)NC(=O)[C@H](CO)NC(=O)[C@@H](NC(=O)[C@H](Cc1ccccc1)NC(=O)[C@@H](NC(=O)CNC(=O)[C@H](CCC(N)=O)NC(=O)C(C)(C)NC(=O)[C@@H](N)Cc1c[nH]cn1)[C@@H](C)O)[C@@H](C)O)C(=O)N[C@@H](CC(=O)O)C(=O)N[C@@H](CCC(=O)O)C(=O)N[C@@H](CCCNC(=N)N)C(=O)N[C@@H](C)C(=O)N[C@@H](C)C(=O)N[C@@H](Cc1ccc(CNC(=O)COCCOCCNC(=O)COCCOCCNC(=O)CC[C@H](NC(=O)CCCCCCCCCCCCCCCCC(=O)O)C(=O)O)cc1)C(=O)N[C@@H](CC(=O)O)C(=O)N[C@@H](Cc1ccccc1)C(=O)N[C@H](C(=O)N[C@@H](CCC(N)=O)C(=O)N[C@@H](Cc1c[nH]c2ccccc12)C(=O)N[C@@H](CC(C)C)C(=O)N[C@@H](CC(C)C)C(=O)N[C@@H](CCCCN)C(=O)N[C@H](C(N)=O)[C@@H](C)O)C(C)C
B5: TP595 (peptide)
peptide: H[Aib]QGTFFSDYSKYLDARAAK([AEEA-AEEA-γGlu-C18 diacid])DFVQWL[Met(O2)]DT-NH2
modifications: N-terminus assumed
SMILES: CC(C)C[C@H](NC(=O)[C@H](Cc1ccc(O)cc1)NC(=O)[C@H](CCCCN)NC(=O)[C@H](CO)NC(=O)[C@H](Cc1ccc(O)cc1)NC(=O)[C@H](CC(=O)O)NC(=O)[C@H](CO)NC(=O)[C@H](Cc1ccccc1)NC(=O)[C@H](Cc1ccccc1)NC(=O)[C@@H](NC(=O)CNC(=O)[C@H](CCC(N)=O)NC(=O)C(C)(C)NC(=O)[C@@H](N)Cc1c[nH]cn1)[C@@H](C)O)C(=O)N[C@@H](CC(=O)O)C(=O)N[C@@H](C)C(=O)N[C@@H](CCCNC(=N)N)C(=O)N[C@@H](C)C(=O)N[C@@H](C)C(=O)N[C@@H](CCCCNC(=O)COCCOCCNC(=O)COCCOCCNC(=O)CC[C@H](NC(=O)CCCCCCCCCCCCCCCCC(=O)O)C(=O)O)C(=O)N[C@@H](CC(=O)O)C(=O)N[C@@H](Cc1ccccc1)C(=O)N[C@H](C(=O)N[C@@H](CCC(N)=O)C(=O)N[C@@H](Cc1c[nH]c2ccccc12)C(=O)N[C@@H](CC(C)C)C(=O)N[C@@H](CCS(C)(=O)=O)C(=O)N[C@@H](CC(=O)O)C(=O)N[C@H](C(N)=O)[C@@H](C)O)C(C)C
B6: TP640 (peptide)
peptide: H[Aib]QGTFTSDYSKLLDARAAK([AEEA-AEEA-γGlu-C18 diacid])DFVQWL[Met(O2)][αMeD]T-NH2
modifications: N-terminus assumed
SMILES: CC(C)C[C@H](NC(=O)[C@H](CC(C)C)NC(=O)[C@H](CCCCN)NC(=O)[C@H](CO)NC(=O)[C@H](Cc1ccc(O)cc1)NC(=O)[C@H](CC(=O)O)NC(=O)[C@H](CO)NC(=O)[C@@H](NC(=O)[C@H](Cc1ccccc1)NC(=O)[C@@H](NC(=O)CNC(=O)[C@H](CCC(N)=O)NC(=O)C(C)(C)NC(=O)[C@@H](N)Cc1c[nH]cn1)[C@@H](C)O)[C@@H](C)O)C(=O)N[C@@H](CC(=O)O)C(=O)N[C@@H](C)C(=O)N[C@@H](CCCNC(=N)N)C(=O)N[C@@H](C)C(=O)N[C@@H](C)C(=O)N[C@@H](CCCCNC(=O)COCCOCCNC(=O)COCCOCCNC(=O)CC[C@H](NC(=O)CCCCCCCCCCCCCCCCC(=O)O)C(=O)O)C(=O)N[C@@H](CC(=O)O)C(=O)N[C@@H](Cc1ccccc1)C(=O)N[C@H](C(=O)N[C@@H](CCC(N)=O)C(=O)N[C@@H](Cc1c[nH]c2ccccc12)C(=O)N[C@@H](CC(C)C)C(=O)N[C@@H](CCS(C)(=O)=O)C(=O)N[C@@](C)(CC(=O)O)C(=O)N[C@H](C(N)=O)[C@@H](C)O)C(C)C
B7: TP594 (peptide)
peptide: HXQGTFTSDYSKYLDARAAXXFVQWLXDT
modifications: Aib (U) at 2; K(PEG2PEG2γEC20-OH) at 20; αMD at 21; L-methionine sulphone (2) at 27; C-terminal amide

Experiments:
[1] = molecular target: human Glucagon receptor (GCGR) (human, UniProt P47871 26-477); assay: cell-based or functional assay
Chain of human Glucagon receptor (GCGR) (P47871 26-477): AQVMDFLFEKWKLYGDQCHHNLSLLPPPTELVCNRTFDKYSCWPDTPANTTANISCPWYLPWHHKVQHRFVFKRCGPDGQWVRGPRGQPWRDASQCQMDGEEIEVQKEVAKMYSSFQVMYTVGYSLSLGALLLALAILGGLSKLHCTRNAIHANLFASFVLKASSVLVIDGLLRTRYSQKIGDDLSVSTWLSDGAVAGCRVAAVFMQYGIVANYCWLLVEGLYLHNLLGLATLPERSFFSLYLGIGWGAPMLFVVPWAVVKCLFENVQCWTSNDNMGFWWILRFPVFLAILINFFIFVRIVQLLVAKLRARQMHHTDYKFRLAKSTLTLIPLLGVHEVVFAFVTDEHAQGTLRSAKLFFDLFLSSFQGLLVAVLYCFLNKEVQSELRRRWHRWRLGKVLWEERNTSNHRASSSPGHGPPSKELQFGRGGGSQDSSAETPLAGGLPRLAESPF

[2] = molecular target: human GLP-1 receptor (GLP1R) (human, UniProt P43220 24-463); assay: cell-based or functional assay

Row | Binder | GCGR EC50 human [1] [nM] | GLP1R EC50 human [2] [nM]
1 | B1 | 3.47 | 2.21
2 | B2 | 0.35 | > 20
3 | B3 | 4.54 | 1.67
4 | B4 | 2.49 | 0.41
5 | HXQGTFTSDXSKYLDARAAQDFVQWLLDT (D-Ser (s) at 2; Nle(1,2,3-triazole-4-C4-Lys-C16) at 10; C-terminal amide) [TP831] | 0.14 | 0.08
6 | HXQGTFTSDXSKYLDARAAQDFVQWLLDT (D-Ser (s) at 2; Nle(1,2,3-triazole-4-γE-C16) at 10; C-terminal amide) [TP830] | 0.14 | 0.22
7 | H[Aib]QGTFTSDK([γGlu-γGlu-C16])SKYLDARAAK([AEEA-AEEA-γGlu-C18 diacid])DFVQWL[Met(O2)]DT-NH2 [TP601] | 1.8 | 8.5
8 | H[Aib]QGTFTSDYSKYLDERAA[Phe(4-CH2NH2)]([AEEA-AEEA-γGlu-C20‑OH])DFVQWLLKT-NH2 [TP586] | 4.95 | 1.23
9 | B5 | 0.4 | > 20
10 | HXQGTFTSDXSKYLDARAAQDFVQWLLDT (D-Ser (s) at 2; Nle(1,2,3-triazole-4-C15) at 10; C-terminal amide) [TP829] | 1.06 | 0.68
11 | B6 | 0.69 | 0.84
12 | H[Aib]QGTFTSDYSKYLDARAAK([AEEA-AEEA-γGlu-C20‑OH])D[αMeF]VQWL[Met(O2)]DT-NH2 [TP590] | 5.03 | 1.64
13 | B7 | 4.95 | 2.6
14 | H[dS]QGTFTSDYSKYLE[Aib]RAAK([AEEA-AEEA-γGlu-C20‑OH])DFVQWLL[Aib]TK-{γGlu-NH2} [TP579] | > 19.9 | 14.7
15 | H[Aib]QGTFTSDYSKYLD[Aib]RAAQDFVK([AEEA-AEEA-γGlu-C20‑OH])WL[Met(O2)]DT-NH2 [TP576] | 1.45 | 1.88

— patent US20200270325A1 (Merck Sharp & Dohme, published 2020)
